Measured values as given in the supplement of paper PMC10567573.
± gives the standard deviation.

Assay: protein stability index of a GFP-peptide fusion (GPS, HEK-293T) (PSI 1-6); higher = more stable
[1] = treatment: MLN4924 1 uM, 8 h, c terminus: a fixed tail appended
[2] = treatment: DMSO, c terminus: a fixed tail appended
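Also: 24-mer peptide tiles fused after GFP, lentivirally expressed, FACS-sorted into six equal bins by GFP/DsRed ratio, decoded by Illumina sequencing, PSI is the read-weighted mean bin number.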

| Sequence | protein stability index [1] | protein stability index [2] | protein stability index (treatment: DMSO, c terminus: native) | protein stability index (treatment: MLN4924 1 uM, 8 h, c terminus: native) |
| --- | --- | --- | --- | --- |
| GRESYIPGICVARVYHGWLFEGLG [SLA] | 1.8 ± 0.88 |  |  |  |
| GRFEQLGKTAASWCLHVNNWLQVS [FSD1] | 1.96 ± 0.2 | 2.29 ± 0.37 |  |  |
| GRPIKPPKKDLEDGEVPQHAGKKG [BRD3] | 5.55 ± 0.061 | 5.41 ± 0.37 |  |  |
| GRSFREEQCVSFNSHVYNGRTHQW [ADAMTSL2] | 3.15 ± 0.87 | 3.05 ± 0.56 |  |  |
| GRWLRSTRFSGSLDRLRETRVAD [PCDHGC5] |  |  | 2.62 ± 0.48 | 2.84 ± 0.14 |
| GSLCSLWFGASVLSLLELLELLLD [SCNN1D] | 1.91 ± 0.27 | 2.17 ± 0.36 |  |  |
| GSLHAGGARLVAACSAWLCPGLRL [AUH] | 2.43 ± 0.7 |  |  |  |
| GSMEQVSSHFLEQTLDKKLMSDLR [INTS4] | 3.73 ± 0.6 | 3.72 ± 0.2 |  |  |
| GSRVLHVVQTLYPFSSVTEEELNF [NCK2] | 2.31 ± 0.22 | 2.31 ± 0.31 |  |  |
| GSSETETEPPVALAPGPAPTRCLP [ESRRA] | 5.16 ± 0.11 | 5.23 ± 0.28 |  |  |
| GSSGGQQPSGMKEGVKRYEQEHAA [CHCHD6] | 5.47 ± 0.21 | 5 ± 0.054 |  |  |
| GTADGRVVKLENGEIETIARFGSG [APMAP] | 4.64 ± 0.1 | 4.66 ± 0.25 |  |  |
| GTGTGPEDGRPSLGSPYGQPPRFP [PDLIM4] | 4.53 ± 0.22 | 4.37 ± 0.21 |  |  |
| GTLVQLLGSDDINVVTCAAGILSN [CTNNB1] | 2.28 ± 0.12 | 2.32 ± 0.52 |  |  |
| GTTVTFDDLMGILCKSVLEIERAI [FEM1C] | 2.14 ± 0.42 | 2.31 ± 0.26 |  |  |
| GVDSMAEEGTSDSNTGSESNSATV [SMARCE1] | 5.57 ± 0.41 | 5.41 ± 0.14 |  |  |
| GVIVANMTEWKHQRITKQLEKWMQ [GLT8D2] | 2.4 ± 0.18 | 2.18 ± 0.085 |  |  |
| GVNYPKPMVNHAEASRLNIERMKQ [CRY1] | 4.11 ± 0.62 | 4.2 ± 0.3 |  |  |
| GVTEEQEGFADGFVKALDDLHKMN [JUNB] | 4.47 ± 0.32 | 4.69 ± 0.17 |  |  |
| GYNWCHDRNVVTIFSAPNYCYRCG [PPP2CA] | 2.27 ± 0.46 | 2.4 ± 0.41 |  |  |
| GYSTHADFVLEMNTAKSTSRVTAF [NLN] | 2.51 ± 0.12 | 2.29 ± 0.2 |  |  |
| GYSWSMGAYKSSTICYCPEKGTWT [KLHL14] | 2.08 ± 0.34 | 2.03 ± 0.26 |  |  |

| Sequence | protein stability index [1] | protein stability index [2] | protein stability index (treatment: DMSO, c terminus: native) | protein stability index (treatment: MLN4924 1 uM, 8 h, c terminus: native) |
| --- | --- | --- | --- | --- |
| HAGQGGLFYSAEVEMLCDQAWGSM [CCDC3] | 2.47 ± 0.39 | 2.53 ± 0.77 |  |  |
| HAQVVEELSNFKSQKVLGLNEDPL [ZBED1] | 4.44 ± 0.32 | 4.34 ± 0.28 |  |  |
| HECGTKYPVEWAKFCCECGIRRMI [ZC2HC1A] | 2.71 ± 0.46 | 2.48 ± 0.3 |  |  |
| HEMREQHDAQVRLYKEELEQTYHA [LMNB1] | 4.27 ± 0.48 | 4.08 ± 0.38 |  |  |
| HFDLRDDDDAEEEGPKRELGVRRP [TCF25] | 5.24 ± 0.3 | 5.32 ± 0.26 |  |  |
| HGLAFWFDVAFIGSIMTVWLSTAP [CARM1] | 3.1 ± 0.53 | 2.78 ± 0.33 |  |  |
| HHSLASSLRSHHTHPSYGPPGVPP [DVL3] | 3.58 ± 0.22 | 3.51 ± 0.29 |  |  |
| HKVLELTAENERLQKKVEQLSREL [CEBPB] | 5.811 ± 0.011 | 5.76 ± 0.23 |  |  |
| HLCLRKADQKLVIIKQIPVEQMTK [NEK8] | 2.75 ± 0.23 | 2.46 ± 0.19 |  |  |
| HLDPGFLASDKTSAGNAPLNEEIN [C18orf25] | 4.97 ± 0.33 | 4.75 ± 0.29 |  |  |
| HLGCAVYQDMIYAVGGRDDTTELS [KLHL20] | 3.38 ± 0.17 | 3.39 ± 0.14 |  |  |
| HPANRSCRETGSFLDLFRYRVLLG [SLC22A15] | 2.15 ± 0.42 | 2.48 ± 0.44 |  |  |
| HPCGDKNCPAHWLAQDWERCNTTC [ADAMTSL2] | 3.99 ± 0.26 | 4.21 ± 0.14 |  |  |
| HQEGAKMAVRLAGGLQKMVALLNK [CTNNB1] | 2.42 ± 0.27 | 2.4 ± 0.11 |  |  |
| HQRIHTGEKPFECNECGKAFRWGA [ZNF232] | 2.61 ± 0.67 | 2.64 ± 0.5 |  |  |
| HRKAVHLRTRGRTRGWVQTLARMS [C6orf223] | 2.49 ± 0.17 | 2.57 ± 0.34 |  |  |
| HRNLSQLPNFAFSVPLAYFLLSQQ [TCF25] | 2.65 ± 0.26 | 2.26 ± 0.56 |  |  |
| HRTVKLVPWSQCLQNFLLHGTKNV [WSB1] | 1.99 ± 0.21 | 2.19 ± 0.17 |  |  |
| HSGEKPYKCSDCGKTFKQSSNLGQ [ZNF232] | 3.57 ± 0.37 | 3.76 ± 0.3 |  |  |
| HSGTKRDPKEDVFQQNHLFWLQNS [PHTF1] | 3.33 ± 0.26 | 3.42 ± 0.25 |  |  |
| HSKASLPTGEGSISHEEQKSVRLA [CHCHD6] | 5.15 ± 0.17 | 5.14 ± 0.2 |  |  |
| HSKQYRCLSFQPECSMKLTPLVLE [VDR] | 2.42 ± 0.14 | 2.5 ± 0.29 |  |  |

| Sequence | protein stability index [1] | protein stability index [2] | protein stability index (treatment: DMSO, c terminus: native) | protein stability index (treatment: MLN4924 1 uM, 8 h, c terminus: native) |
| --- | --- | --- | --- | --- |
| HSQELTNEKEKALQAQVQYQQQHE [SASS6] | 5.51 ± 0.14 | 5.45 ± 0.26 |  |  |
| HTGEKPYTCHECGDSFSHSSNRIR [ZNF263] | 3.4 ± 0.48 | 2.67 ± 0.2 |  |  |
| HVDSIKFCGATIAGLSLLSPSVMR [ALKBH7] | 2.19 ± 0.39 | 2.2 ± 0.81 |  |  |
| HVRHMAYQLCHALRFLHENQLTHT [CLK3] | 3.01 ± 0.38 | 3.06 ± 0.3 |  |  |
| HVRQGVFSSLNHIVEKRVLAHLAP [INTS3] | 2.41 ± 0.12 | 2.32 ± 0.21 |  |  |
| HYAGQDATDPFVAFHINKGLVKKY [FADS1] | 3.14 ± 0.11 | 3.21 ± 0.26 |  |  |
| IAIVSVMVILISIVIFCLETLPEL [KCNA1] | 2.44 ± 0.16 | 2.39 ± 0.25 |  |  |
| ICDRTATPLDAFRMTSAAHYYPKL [GFOD1] | 2.82 ± 0.16 | 2.85 ± 0.21 |  |  |
| ICEATQIIDYLEQTFLDERTPRLM [GDAP1] | 2.45 ± 0.18 | 2.39 ± 0.24 |  |  |
| ICEQAEYHMFQREKVEVQLPELFH [KCNAB2] | 3.06 ± 0.29 | 3.17 ± 0.24 |  |  |
| ICPICLEMFTKPVVILPCQHNLCR [TRIM55] | 2.96 ± 0.51 | 2.42 ± 0.17 |  |  |
| ICQGIRGLWGTTLTENTAENRELY [PKD2L1] | 3.37 ± 0.21 | 3.03 ± 0.19 |  |  |
| IEERKQGLEQFINKVAGHPLAQNE [SNX3] | 4.31 ± 0.47 | 4.54 ± 0.13 |  |  |
| IELNPPEKMALDPYTELRKQPLRK [EFHC1] | 4.21 ± 0.33 | 4.08 ± 0.2 |  |  |
| IFRSYSRGAQGVILVYDIANRWSF [RAB40A] | 2.36 ± 0.35 | 2.53 ± 0.36 |  |  |
| IFSLATEWVISTGHDKCVSWMCTR [WDFY1] | 2.85 ± 0.66 | 2.94 ± 0.47 |  |  |
| IGCVFAELLTGQPLWPGKSDVDQL [CDKL4] | 2.15 ± 0.57 | 2.09 ± 0.32 |  |  |
| IHGTLHLERLAYLHARLRELLCEL [PRAME] | 2.06 ± 0.31 | 2.04 ± 0.3 |  |  |
| IHLDPRTREGFTLLHLAVNSNTPV [FEM1B] | 2.17 ± 0.27 | 2.24 ± 0.41 |  |  |
| IKGKSCRTITFEQFQEALEELAKK [TPPP] | 2.62 ± 0.36 | 2.53 ± 0.26 |  |  |
| IKPENILITKQGIIKICDFGFAQI [CDKL4] | 2.49 ± 1 | 2.18 ± 0.29 |  |  |
